# Laboratory results reported in paper PMC3240985.
# Substrate: O=C(O)[C@@H](COP(=O)(O)O)O[C@H]1O[C@H](CO)[C@@H](O)[C@H](O)[C@H]1O
# Experiment: purified protein
# Details: pH 7.5; 37.0 °C
protein,measurement,value
"mGpgP (Rv2419c), recombinant GpgP from M. tuberculosis (Mycobacterium tuberculosis H37Rv) (protein) MRARRLVMLRHGQTDYNVGSRMQGQLDTELSELGRTQAVAAAEVLGKRQPLLIVSSDLRRAYDTAVKLGERTGLVVRVDTRLRETHLGDWQGLTHAQIDADAPGARLAWREDATWAPHGGESRVDVAARSRPLVAELVASEPEWGGADEPDRPVVLVAHGGLIAALSAALLKLPVANWPALGGMGNASWTQLSGHWAPGSDFESIRWRLDVWNASAQVSSDVL",Km,0.35 ± 0.03 mM
